Measured values published in paper PMC7515635 (eLife, 2020).
Where “and” joins values, the source holds several entries; their conditions need not be identical. Equal entries are not always repeated.

B3: HIS6-AtC53 (natural protein)
chain: not shown
notes: C53, Arabidopsis thaliana; Monomeric by native MS; source: E. coli Rosetta2(DE3)pLysS, purified (HisTrap, ion exchange, SEC)

Tests used:
Conditions in all cases: both partners purified
HIS6-AtC53 = biological target: B3; test: SPR; competition, apparent; GST-GABARAP or GST-ATG8A captured; increasing AIM wt peptide premixed with 10 µM HsC53 or AtC53; 25°C, 50 mM sodium phosphate pH 7.0, 100 mM NaCl, 0.05% Tween-20, 0.1% BSA
HIS6-HsC53 = biological target: T1, HIS6-HsC53 (human, UniProt Q96JB5 1-506); test: as above
T1 construct: C53 (CDK5RAP3), human; Monomeric by native MS; source: E. coli Rosetta2(DE3)pLysS, purified (HisTrap, ion exchange, SEC)

HIS6-ATG8A [1] = biological target: T2, HIS6-ATG8A (Arabidopsis thaliana, UniProt Q8LEM4 1-117); test: native MS; proteins exchanged into ammonium acetate, nanoelectrospray, Synapt G2Si; C53 1-5 µM or IDR 2.5 µM with 5-20 µM ATG8A or GABARAP
T2 construct: ATG8A, Arabidopsis thaliana; source: E. coli Rosetta2(DE3)pLysS, purified (HisTrap, ion exchange, SEC)
T2 sequence (looked up): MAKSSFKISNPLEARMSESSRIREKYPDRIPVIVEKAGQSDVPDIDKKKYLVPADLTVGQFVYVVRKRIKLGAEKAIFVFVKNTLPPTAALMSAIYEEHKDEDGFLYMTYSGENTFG

HIS6-GABARAP = biological target: T3, HIS6-GABARAP (human, UniProt O95166 1-117); test: ITC; 25°C, 50 mM sodium phosphate pH 7.0, 100 mM NaCl; cell 40 µM GABARAP or ATG8A, syringe 600 µM peptide or 250 µM IDR; one-set-of-sites model
T3 construct: GABARAP, human ATG8 isoform; source: E. coli Rosetta2(DE3)pLysS, purified (HisTrap, ion exchange, SEC)

HIS6-ATG8A [2] = biological target: T2, HIS6-ATG8A; test: as above

Chain of HIS6-AtC53 (Q9FG23 whole entry): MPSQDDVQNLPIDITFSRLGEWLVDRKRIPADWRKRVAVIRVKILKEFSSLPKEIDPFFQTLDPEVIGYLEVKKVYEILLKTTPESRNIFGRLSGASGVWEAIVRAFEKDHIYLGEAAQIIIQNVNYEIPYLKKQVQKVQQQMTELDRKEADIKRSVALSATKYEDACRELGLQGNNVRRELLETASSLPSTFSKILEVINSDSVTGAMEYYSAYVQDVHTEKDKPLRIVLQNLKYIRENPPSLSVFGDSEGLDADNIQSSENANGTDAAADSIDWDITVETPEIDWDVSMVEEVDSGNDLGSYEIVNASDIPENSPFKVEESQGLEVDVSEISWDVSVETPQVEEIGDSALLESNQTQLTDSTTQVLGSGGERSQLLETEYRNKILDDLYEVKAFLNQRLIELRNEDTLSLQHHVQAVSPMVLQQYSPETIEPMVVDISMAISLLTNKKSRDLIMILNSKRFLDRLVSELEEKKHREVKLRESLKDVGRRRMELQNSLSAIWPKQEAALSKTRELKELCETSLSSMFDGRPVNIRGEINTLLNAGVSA
T1 sequence (Q96JB5 whole entry): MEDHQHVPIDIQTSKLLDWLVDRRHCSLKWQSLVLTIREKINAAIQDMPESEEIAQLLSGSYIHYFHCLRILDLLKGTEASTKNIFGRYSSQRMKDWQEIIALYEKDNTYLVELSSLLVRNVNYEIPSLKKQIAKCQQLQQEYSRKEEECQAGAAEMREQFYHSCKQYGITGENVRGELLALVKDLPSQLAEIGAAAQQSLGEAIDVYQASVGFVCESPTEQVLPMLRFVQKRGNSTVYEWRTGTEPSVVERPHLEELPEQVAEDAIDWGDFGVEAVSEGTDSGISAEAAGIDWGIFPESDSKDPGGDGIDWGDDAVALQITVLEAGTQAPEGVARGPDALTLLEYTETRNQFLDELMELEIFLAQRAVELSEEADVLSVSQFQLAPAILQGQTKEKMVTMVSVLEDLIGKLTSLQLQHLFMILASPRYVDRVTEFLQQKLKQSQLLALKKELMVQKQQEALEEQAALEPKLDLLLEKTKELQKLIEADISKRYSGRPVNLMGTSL

B1: GST-ATG8A (natural protein, Arabidopsis thaliana, UniProt Q8LEM4 1-117, looked up)
chain: MAKSSFKISNPLEARMSESSRIREKYPDRIPVIVEKAGQSDVPDIDKKKYLVPADLTVGQFVYVVRKRIKLGAEKAIFVFVKNTLPPTAALMSAIYEEHKDEDGFLYMTYSGENTFG
notes: ATG8A, Arabidopsis thaliana; printed MW of GST-ATG8A 42366.85 Da; also called AtATG8; source: E. coli recombinant expression; bacterial lysate (pull-downs), recombinant protein (SPR, peptide array); not shown: GST, N-terminal, kept
B1: binds (HIS6-AtC53).

B2: GST-GABARAP (natural protein, human, UniProt O95166 1-117, looked up)
chain: MKFVYKEEHPFEKRRSEGEKIRKKYPDRVPVIVEKAPKARIGDLDKKKYLVPSDLTVGQFYFLIRKRIHLRAEDALFFFVNNVIPPTSATMGQLYQEHHEEDFFLYIAYSDESVYGL
notes: GABARAP, human ATG8 isoform; printed MW of GST-GABARAP 42458.87 Da; source: E. coli recombinant expression; bacterial lysate (pull-downs), recombinant protein (SPR); not shown: GST, N-terminal, kept
B2: binds (HIS6-HsC53).

B3 was tested, and the “stoichiometry N” value (HIS6-ATG8A [1]) was 1 ATG8A per AtC53 and 2 ATG8A per AtC53.

B4: AtC53-IDR (purified) (domain or fragment, Arabidopsis thaliana, UniProt Q9FG23 264-341, looked up)
chain: ANGTDAAADSIDWDITVETPEIDWDVSMVEEVDSGNDLGSYEIVNASDIPENSPFKVEESQGLEVDVSEISWDVSVET
notes: intrinsically disordered region of Arabidopsis C53; The expected mass (about 80 residues) is too small for 239-372, the limits of MBP-AtC53^IDR; source: E. coli Rosetta2(DE3)pLysS, purified
For B4, the “stoichiometry N” value (HIS6-ATG8A [1]) was 1 ATG8A per AtC53-IDR and 2 ATG8A per AtC53-IDR and 3 ATG8A per AtC53-IDR.

B5: Hs-sAIM peptide (peptide)
peptide: EPLDFDIDWGLEEEM
notes: peptide with a shuffled AIM (IDWG) in the frame of the AIM wt peptide; also called Hs-sAIMC53
B5: binds (HIS6-GABARAP).

B6: At-sAIM peptide (peptide)
peptide: EPLDFDIDWDLEEEM
notes: peptide with a shuffled AIM (IDWD) in the frame of the AIM wt peptide
B6: binds (HIS6-ATG8A [2]).
